The target of the test is human PTH1R in transiently transfected COS-7 cell membranes (human) (UniProt Q03431). Briefly: radioligand binding.

The source of these data is article PMC7502484.

UniProt Q03431, sequence (Q03431 27-593): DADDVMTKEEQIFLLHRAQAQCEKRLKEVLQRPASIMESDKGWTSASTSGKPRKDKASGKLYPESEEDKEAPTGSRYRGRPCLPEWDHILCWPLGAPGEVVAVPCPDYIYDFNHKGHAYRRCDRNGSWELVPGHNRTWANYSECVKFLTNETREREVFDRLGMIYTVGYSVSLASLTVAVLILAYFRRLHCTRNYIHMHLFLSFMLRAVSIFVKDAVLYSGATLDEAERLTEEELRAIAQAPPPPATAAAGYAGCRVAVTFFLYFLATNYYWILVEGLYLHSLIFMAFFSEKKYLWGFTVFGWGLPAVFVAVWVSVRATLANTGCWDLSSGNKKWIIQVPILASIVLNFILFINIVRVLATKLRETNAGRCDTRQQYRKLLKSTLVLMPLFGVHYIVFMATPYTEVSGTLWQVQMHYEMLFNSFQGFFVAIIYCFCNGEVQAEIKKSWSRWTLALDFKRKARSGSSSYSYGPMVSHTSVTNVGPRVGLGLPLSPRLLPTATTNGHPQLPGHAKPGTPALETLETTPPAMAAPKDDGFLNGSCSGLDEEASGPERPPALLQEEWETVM

Turning to PTH(1–34)^H9A (peptide), the IC50 amounted to 13.7 nM.

The IC50 is the concentration that gives 50% inhibition.
